Data published in patent US20100202967A1 (BRACCO IMAGING, published 2010).
Bridge positions count the residues as written; N and C are the ends. Square brackets hold non-standard residues; d marks the D form. * marks the point of attachment. αGalNAc = CC(=O)N[C@@H]1[C@@H](O)[C@@H](O)[C@@H](CO)O[C@@H]1*; Hyp = O=C(O)[C@@H]1C[C@@H](O)CN1; Cha = N[C@@H](CC1CCCCC1)C(=O)O; CF5 = 5-carboxyfluorescein; AEEA = NCCOCCOCC(=O)O

T1: fibrin
T1 chain 1: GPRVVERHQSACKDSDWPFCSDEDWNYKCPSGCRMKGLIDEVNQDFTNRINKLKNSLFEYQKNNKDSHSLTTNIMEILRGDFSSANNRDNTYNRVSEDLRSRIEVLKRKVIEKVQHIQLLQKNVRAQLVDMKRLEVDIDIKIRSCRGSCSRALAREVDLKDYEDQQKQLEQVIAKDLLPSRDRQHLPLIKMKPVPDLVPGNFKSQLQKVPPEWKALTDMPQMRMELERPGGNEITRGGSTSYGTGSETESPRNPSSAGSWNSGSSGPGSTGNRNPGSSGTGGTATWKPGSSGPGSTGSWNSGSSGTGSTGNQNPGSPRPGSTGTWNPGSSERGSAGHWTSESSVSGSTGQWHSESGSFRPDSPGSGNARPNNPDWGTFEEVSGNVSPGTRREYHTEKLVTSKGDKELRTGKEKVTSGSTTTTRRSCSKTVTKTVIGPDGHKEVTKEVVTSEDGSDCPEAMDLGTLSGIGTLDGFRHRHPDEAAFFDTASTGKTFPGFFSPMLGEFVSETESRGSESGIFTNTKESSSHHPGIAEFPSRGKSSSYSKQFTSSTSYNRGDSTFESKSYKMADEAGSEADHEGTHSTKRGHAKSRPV
T1 chain 2: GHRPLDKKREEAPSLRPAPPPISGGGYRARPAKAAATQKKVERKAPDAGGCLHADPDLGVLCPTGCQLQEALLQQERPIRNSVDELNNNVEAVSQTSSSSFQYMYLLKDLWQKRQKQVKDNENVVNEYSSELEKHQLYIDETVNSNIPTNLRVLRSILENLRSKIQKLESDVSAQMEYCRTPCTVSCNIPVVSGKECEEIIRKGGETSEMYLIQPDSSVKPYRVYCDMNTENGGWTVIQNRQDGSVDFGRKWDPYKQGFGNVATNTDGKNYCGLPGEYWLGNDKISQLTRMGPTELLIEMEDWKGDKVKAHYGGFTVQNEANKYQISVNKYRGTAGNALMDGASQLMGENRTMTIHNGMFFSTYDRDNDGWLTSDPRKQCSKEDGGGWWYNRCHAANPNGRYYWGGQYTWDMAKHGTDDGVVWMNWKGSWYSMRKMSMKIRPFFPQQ
T1 chain 3: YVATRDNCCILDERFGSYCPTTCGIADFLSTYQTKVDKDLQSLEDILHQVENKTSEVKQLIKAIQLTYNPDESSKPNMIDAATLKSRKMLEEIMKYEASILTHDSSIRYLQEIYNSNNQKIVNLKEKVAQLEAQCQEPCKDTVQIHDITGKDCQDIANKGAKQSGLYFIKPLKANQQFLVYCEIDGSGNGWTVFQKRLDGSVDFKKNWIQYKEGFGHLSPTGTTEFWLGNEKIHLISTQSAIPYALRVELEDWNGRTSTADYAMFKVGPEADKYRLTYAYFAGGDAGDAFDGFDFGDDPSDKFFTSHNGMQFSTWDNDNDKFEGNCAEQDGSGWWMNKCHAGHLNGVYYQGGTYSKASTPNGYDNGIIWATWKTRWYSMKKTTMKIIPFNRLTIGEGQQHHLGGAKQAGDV

B1: Ac-WQPC*PAESWTFC*WDPGGGK-NH2 (peptide)
peptide: Ac-WQPCPAESWTFCWDPGGGK-NH2
modifications: disulfide 4-12
SMILES: CC(=O)N[C@@H](Cc1c[nH]c2ccccc12)C(=O)N[C@@H](CCC(N)=O)C(=O)N1CCC[C@H]1C(=O)N[C@H]1CSSC[C@@H](C(=O)N[C@@H](Cc2c[nH]c3ccccc23)C(=O)N[C@@H](CC(=O)O)C(=O)N2CCC[C@H]2C(=O)NCC(=O)NCC(=O)NCC(=O)N[C@@H](CCCCN)C(N)=O)NC(=O)[C@H](Cc2ccccc2)NC(=O)[C@H]([C@@H](C)O)NC(=O)[C@H](Cc2c[nH]c3ccccc23)NC(=O)[C@H](CO)NC(=O)[C@H](CCC(=O)O)NC(=O)[C@H](C)NC(=O)[C@@H]2CCCN2C1=O
B2: Ac-RRGGWQPC*PWESWTFC*WDPGGGK-NH2 (peptide)
peptide: Ac-RRGGWQPCPWESWTFCWDPGGGK-NH2
modifications: disulfide 8-16
SMILES: CC(=O)N[C@@H](CCCNC(=N)N)C(=O)N[C@@H](CCCNC(=N)N)C(=O)NCC(=O)NCC(=O)N[C@@H](Cc1c[nH]c2ccccc12)C(=O)N[C@@H](CCC(N)=O)C(=O)N1CCC[C@H]1C(=O)N[C@H]1CSSC[C@@H](C(=O)N[C@@H](Cc2c[nH]c3ccccc23)C(=O)N[C@@H](CC(=O)O)C(=O)N2CCC[C@H]2C(=O)NCC(=O)NCC(=O)NCC(=O)N[C@@H](CCCCN)C(N)=O)NC(=O)[C@H](Cc2ccccc2)NC(=O)[C@H]([C@@H](C)O)NC(=O)[C@H](Cc2c[nH]c3ccccc23)NC(=O)[C@H](CO)NC(=O)[C@H](CCC(=O)O)NC(=O)[C@H](Cc2c[nH]c3ccccc23)NC(=O)[C@@H]2CCCN2C1=O
B3: Ac-S(Galnac)-JWQPC*PWESWTFC*WDPGGGK-NH2 (peptide)
peptide: Ac-S(αGalNAc)[AEEA]WQPCPWESWTFCWDPGGGK-NH2
modifications: disulfide 6-14
SMILES: CC(=O)N[C@H]1[C@@H](OC[C@H](NC(C)=O)C(=O)NCCOCCOCC(=O)N[C@@H](Cc2c[nH]c3ccccc23)C(=O)N[C@@H](CCC(N)=O)C(=O)N2CCC[C@H]2C(=O)N[C@H]2CSSC[C@@H](C(=O)N[C@@H](Cc3c[nH]c4ccccc34)C(=O)N[C@@H](CC(=O)O)C(=O)N3CCC[C@H]3C(=O)NCC(=O)NCC(=O)NCC(=O)N[C@@H](CCCCN)C(N)=O)NC(=O)[C@H](Cc3ccccc3)NC(=O)[C@H]([C@@H](C)O)NC(=O)[C@H](Cc3c[nH]c4ccccc34)NC(=O)[C@H](CO)NC(=O)[C@H](CCC(=O)O)NC(=O)[C@H](Cc3c[nH]c4ccccc34)NC(=O)[C@@H]3CCCN3C2=O)O[C@H](CO)[C@H](O)[C@@H]1O

Target: T1, fibrin
Assay: fluorescence polarization, direct binding (n = 2)

Kd [nM] | Binder
170 | Ac-WQPCPAESWT[Cha]CWDPGGGK(CF5)-NH2 (disulfide 4-12) [Ac-WQPC*PAESWT-Cha-C*WDPGGGK(CF5)-NH2]
80 | Ac-RWQPCPAESWT[Cha]CWDPGGGK(CF5)-NH2 (disulfide 5-13) [Ac-RWQPC*PAESWT-Cha-C*WDPGGGK(CF5)-NH2]
710 | Ac-KKGWQPCPWESWTFCWDPGGGK(CF5)-NH2 (disulfide 7-15) [Ac-KKGWQPC*PWESWTFC*WDPGGGK(CF5)-NH2]
570 | Ac-SGSG[AEEA]WQPCPAESWTFCWDPGGGK(CF5)-NH2 (disulfide 9-17) [Ac-SGSGJWQPC*PAESWTFC*WDPGGGK(CF5)-NH2]
450 | Ac-SGSG[AEEA]WQPCPWESWTFCWDPGGGK(CF5)-NH2 (disulfide 9-17) [Ac-SGSGJWQPC*PWESWTFC*WDPGGGK(CF5)-NH2]
310 | Ac-GPPGWQPCPAESWTFCWDPGGGK(CF5)-NH2 (disulfide 8-16) [Ac-GPPGWQPC*PAESWTFC*WDPGGGK(CF5)-NH2]
520 | Ac-GGRGWQPCPAESWTFCWDPGGGK(CF5)-NH2 (disulfide 8-16) [Ac-GGRGWQPC*PAESWTFC*WDPGGGK(CF5)-NH2]
220 | Ac-RRGGWQPCPAESWTFCWDPGGGK(CF5)-NH2 (disulfide 8-16) [Ac-RRGGWQPC*PAESWTFC*WDPGGGK(CF5)-NH2]
500 | Ac-S(αGalNAc)WQPCPWESWTFCWDPGGGK(CF5)-NH2 (disulfide 5-13) [Ac-S(Galnac)-WQPC*PWESWTFC*WDPGGGK(CF5)-NH2]
530 | Ac-SGSGSGSGWQPCPAESWTFCWDPGGGK(CF5)-NH2 (disulfide 12-20) [Ac-SGSGSGSGWQPC*PAESWTFC*WDPGGGK(CF5)-NH2]
470 | Ac-SGSGSGSGWQPCPWESWTFCWDPGGGK(CF5)-NH2 (disulfide 12-20) [Ac-SGSGSGSGWQPC*PWESWTFC*WDPGGGK(CF5)-NH2]
280 | H-RGWQPCPWESWTFCWDPGGGK(CF5)-NH2 (disulfide 6-14) [RGWQPC*PWESWTFC*WDPGGGK(CF5)-NH2]
760 | Ac-KGKGKGWQPCPWESWTFCWDPGGGK(CF5)-NH2 (disulfide 10-18) [Ac-KGKGKGWQPC*PWESWTFC*WDPGGGK(CF5)-NH2]
250 | Ac-GPPGWQPCPWESWTFCWDPGGGK(CF5)-NH2 (disulfide 8-16) [Ac-GPPGWQPC*PWESWTFC*WDPGGGK(CF5)-NH2]
290 | Ac-GGRGWQPCPWESWTFCWDPGGGK(CF5)-NH2 (disulfide 8-16) [Ac-GGRGWQPC*PWESWTFC*WDPGGGK(CF5)-NH2]
230 | Ac-GWQPCPWESWTFCWDPGGGK(CF5)-NH2 (disulfide 5-13) [Ac-GWQPC*PWESWTFC*WDPGGGK(CF5)-NH2]

Target: T1, fibrin
Assay: competition fluorescence polarization assay (n = 2)

Rel IC50 | Binder
0.875 ratio to Ac-Seq000-GGGK-NH2 | B1
0.357 ratio to Ac-Seq000-GGGK-NH2 | Ac-KKGWQPCPWESWTFCWDPGGGK-NH2 (disulfide 7-15) [Ac-KKGWQPC*PWESWTFC*WDPGGGK-NH2]
0.527 ratio to Ac-Seq000-GGGK-NH2 | Ac-SGSGSGSGWQPCPWESWTFCWDPGGGK-NH2 (disulfide 12-20) [Ac-SGSGSGSGWQPC*PWESWTFC*WDPGGGK-NH2]
0.47 ratio to Ac-Seq000-GGGK-NH2 | H-RWQPCPWESWTFCWDPGGGK-NH2 (disulfide 5-13) [RWQPC*PWESWTFC*WDPGGGK-NH2]
0.714 ratio to Ac-Seq000-GGGK-NH2 | Ac-SGSG[AEEA]WQPCPWESWTFCWDPGGGK-NH2 (disulfide 9-17) [Ac-SGSGJWQPC*PWESWTFC*WDPGGGK-NH2]
0.595 ratio to Ac-Seq000-GGGK-NH2 | Ac-KGKGKGWQPCPWESWTFCWDPGGGK-NH2 (disulfide 10-18) [Ac-KGKGKGWQPC*PWESWTFC*WDPGGGK-NH2]
0.55 ratio to Ac-Seq000-GGGK-NH2 | Ac-WQPC[Hyp]WESWTFCWDPGGGK-NH2 (disulfide 4-12) [Ac-WQPC*-Hypt4-WESWTFC*WDPGGGK-NH2]
0.559 ratio to Ac-Seq000-GGGK-NH2 | Ac-S(αGalNAc)WQPCPWESWTFCWDPGGGK-NH2 (disulfide 5-13) [Ac-S(Galnac)-WQPC*PWESWTFC*WDPGGGK-NH2]
0.125 ratio to Ac-Seq000-GGGK-NH2 | B2
0.235 ratio to Ac-Seq000-GGGK-NH2 | Ac-GPPGWQPCPWESWTFCWDPGGGK-NH2 (disulfide 8-16) [Ac-GPPGWQPC*PWESWTFC*WDPGGGK-NH2]
0.511 ratio to Ac-Seq000-GGGK-NH2 | H-RGWQPCPWESWTFCWDPGGGK-NH2 (disulfide 6-14) [RGWQPC*PWESWTFC*WDPGGGK-NH2]
0.37 ratio to Ac-Seq000-GGGK-NH2 | Ac-GGRGWQPCPWESWTFCWDPGGGK-NH2 (disulfide 8-16) [Ac-GGRGWQPC*PWESWTFC*WDPGGGK-NH2]
1.15 ratio to Ac-Seq000-GGGK-NH2 | B3
